# Results: the DeepSol protein solubility set
# Assay: soluble on expression in E. coli; label from the status in PepcDB or PDB records
row,Sequence,soluble on expression in E. coli
1,MIDTFERTGPLMEASSYPAWAQQLINDCSPAKARVVEHELYQQMRDAKLSPQIMRQYLIGGWPVVEQFAVYMAKNLTKTRFGRHPGEDMARRWLMRNIRVELNHADYWVNWCAAHDVTLEDLHDQRVAPELHALSHWCWQTSSSDSLAVAMAATNYAIEGATGEWSAVVCSTGVYAEAFAEETRKKSMKWLKMHAQYDDAHPWEALEIICTLVGNKPSLQLQAELRQAVTKSYDYMYLFLERCIQLDKVKSPRGRVAALEM,soluble
2,SNTPRLSLRTIEPTDYPELAELMDLVFPDVGGSWPRLTIMDLIHQFPDGQICIEDNGKIVGAALTIKVDYNRFSLPHLYTDIITENNVIQNQVTGDAMYGLDVFVHPDYRGLRLGRRLYDARKELCRSKNFKAILAGGRIPNYHQYADELSVAEYIDKVKRRELHDPILSFQLANDFDVKRIMRGYLP,not soluble
3,GPGSMVKKMGRDEARAGVERRPPPMLKAERQAAFRRKVRNELLLSGRERKDAERQRMEEFRRLCKAEGIQSKRLQEYDAMREEAANKLGEKLNHIEYDQSLTNAEKRKRRYNLKRNYAGQTVMDLVQKQEKHHNALTKVEKIRKKRQEEIEAARVAKRERDEMKVKRIKERMAQNALYAQRTRKGQPVMSGRVEALLNKIQRNQQQ,soluble
4,SNAMITKAIYPGTFDPITNGHLDLVTRASAMFSHVILAIADSSSKKPMFTLDERVALAKKVTAPLKNVEVLGFSELMAEFAKKHNANILVRGLRSVSDFEYEWQLANMNRHLMPKLESVFLIPSEKWSFISSSLVKEVARHGGDITPFLPKPVTKALLAKLA,soluble
5,MTEEFNESMINDIKEGDKVTGEVQQVEDKQVVVHINGGKFNGIIPISQLSTHHIENPSEVVKQGDEIEAYVTKIEVDEENDSGVYILSKRQLETEKSYEYLQEKLDNDEIIEAKVTEVVKGGLVVDVGQRGFVPASLISTDFIEDFSVFDGQTIRIKVEELDPENNRVILSRKAVEQAENDVKKASLLESLNAGDVIKGKVARLTNFGAFVDIGGVDGLVHVSELSHEHVDSPEDVVSVGQEVDVKVKSVEKDAERISLSIKDTLPTPFESIKGQFHEDDVIEGKVVRLANFGAFVEIAPGVQGLVHISEIAHEHIGTPGEKLEPGQQVNVKILGIDEENERISLSIKATLPKEDVVESDDATTQSYLSNDSIEDNPTLGDVFGDKFKDLKF,soluble
6,MASVPVYCLCRLPYDVTRFMIECDMCQDWFHGSCVGVEEEKAADIDLYHCPNCEVLHGPSIMKKRRGSSKGHDTHKGKPVKTGSPTFVRELRSRTFDSSDEVILKPTGNQLTVEFLEENSFSVPILVLKKDGLGMTLPSPSFTVRDVEHYVGSDKEIDVIDVTRQADCKMKLGDFVKYYYSGKREKVLNVISLEFSDTRLSNLVETPKIVRKLSWVENLWPEECVFERPNVQKYCLMSVRDSYTDFHIDFGGTSVWYHVLKGEKIFYLIRPTNANLTLFECWSSSSNQNEMFFGDQVDKCYKCSVKQGQTLFIPTGWIHAVLTPVDCLAFGGNFLHSLNIEMQLKAYEIEKRLSTADLFRFPNFETICWYVGKHILDIFRGLRENRRHPASYLVHGGKALNLAFRAWTRKEALPDHEDEIPETVRTVQLIKDLAREIRLVEDIFQQN,soluble
7,MAAQQPLSQEQLLHFWGAHNTMGKMTRRTSQSDGGKPSGNSNAAGGAGTKPKVATPQVVAKIEQYKRDNPTIFAWEIREKLISEDVCTTPPSVSSINRILRTRAAERAAEELQMILSAQHLARPRAQQVRLPPAFPFPFPLVWPGLLPNPAQLSLLLNSGALAPPVQSGGAGGPGVFGNSGQISVDSNLNLSEDDSTLGANARRLSRSTFTNEQLQSLEEVFLRDPYPSPNERADLVKRTNLPEARIQVWFSNRRAKWRKTNANGSDRDELRAERSETDDALSISSQSPSPGGGQETGSDEGKKKTITLFKPYE,not soluble
8,MGHHHHHHSHMDIQKSENEDDSEWEDVDDEKGDSNDDYDSAGLLSDEDCMSVPGKTHRAIADHLFWSEETKSRFTEYSMTSSVMRRNEQLTLHDERFEKFYEQYDDDEIGALDNAELEGSIQVDSNRLQEVLNDYYKEKAENCVKLNTLEPLEDQDLPMNELDESEEEEMITVVLEEAKEKWDCESICSTYSNLYNHPQLIKYQPKPKQIRISSKTGIPLNVLPKKGLTAKQTERIQMINGSDLPKVSTQPRSKNESKEDKRARKQAIKEERKERRVEKKANKLAFKLEKRRQEKELLNLKKNVEGLKL,not soluble
9,MSLRISMATFFPQSVTALDSPLYGRSFADDKMRELFSAQSFISRCVETEVALARAQARLGIIPEDAAAGITAAARTFAPEMERLRDDTEIVGYPILPLVEQLSAHAGEAGKYLHWGATTQDIMDTATVLQIRDGLALISRRIESVRKALAALARNHRDTPMAGRTHLQHALPVTFGYKAAVWLSAFDRHAARLEEISPRVLVVEFSGASGTLASLGTRGLDVQRELARELNLGVPSITWHSARDAVAETVQFLALVSGSLGKLAMDISIMMTTELGEVAEPFVRHRGASSTMPQKQNPVSCELILAGARIVRNHATSMLDAMIHDFERATGPWHLEWSAVPEGFAVASGILYQAEFMLGGLQVFPDRMRENLDHSRGLIVAEAVMMALAPHTGRKEAHDIVYLGCRRAVEDKTGLFEVLRTMPEVAKPLGEEALRDLTDPRNYLGSAGAMVDNVLGGREGHHHHHH,soluble
10,MAQAKHKQRKRLKSSCKRHPLYVDFSDVGWNDWIVAPPGYHAFYCHGECPFPLADHLNSTNHAIVQTLVNSVNSKIPKACCVPTELSAISMLYLDENEKVVLKNYQDMVVEGCGCR,soluble
11,MLKQNTEREGRTIEQEDLKNLENEITEARENEDKYFSTFKGVRGQLIKECQEMKDEAFKIAYDGVMADSKHLENVKAGRLTEVQHEELAKEKGQEASEKALPKTPLGVAIMLKHYLRFIRVKPEAQGQKAPLYFFHPDHGVWLEDNEFLQDLISVIFPNATEKQAFDTLYKIARQSQLKEIQREYTVIGNQLYNYKTGQFEELTPDITVTRKIKTGYNKKAKEPTIKGWKPTAWLLELFDGDAELYNLAIQIIKASITGQSLQKIFWLFGEGGTGKGTFQQLLINLVGMDNVASLKITELAKSRFTTSILLGKSIVIGDDIQKDAVIKDTSDIFSLATGDIMTIEDKGKRPYSIRLNMTVVQSSNGLPRMNGDKSAIDRRFRILPFTKVFKGKPNKAIRNDYINRKEVLEYLLKLAIETPITDINPKASIEILEEHHKEMNPVIDFVSKFFTDELTSEFIPNSFVYHVWKGFLEYYDIKQIKSERGLHKEIKSNLPEGFEAGQKVIPVGRQLHTGFYPKEDLPLFASASYANGRASPEKRKKPKNERGYYNHWPTHKKQKKT,soluble
12,GAMDTMESIVLNTIVTGLQEPKKEFIARVIKTIGSQRSLQLYENAMKVENSGGLLTADMSRRKTIGGVFCYLLKQLVAEDQITIQEWNYIRQEEKERINAKNILKRNNRRCQV,soluble
13,MSAEVETSEGVDESEKKNSGALEKENQMRMADLSELLKEGTKEAHDRAENTQFVKDFLKGNIKKELFKLATTALYFTYSALEEEMERNKDHPAFAPLYFPMELHRKEALTKDMEYFFGENWEEQVQCPKAAQKYVERIHYIGQNEPELLVAHAYTRYMGDLSGGQVLKKVAQRALKLPSTGEGTQFYLFENVDNAQQFKQLYRARMNALDLNMKTKERIVEEANKAFEYNMQIFNELDQAGSTLARETLEDGFPVHDGKGDMRKCPFYAAEQDKGALEGSSCPFRTAM,soluble
14,MSLSGVVERITFVNEENGFSVVKIKSKGFSDLVTAVGNMASVNVGAVVSLRGEWKYDSKFGRQFNVYHYEESIPATVAGIEKYLGSGLIKGIGPVNAKRIVKVFKEDTIRVIEEEPDRLIEVPGIGKKRVEMIKEAWQNQKEIKNVMLFLQSHGVSTAFAVKIFKTYGSDSIKIVKENPYRLADDIWGIGFKTADKIAQNMGYDKESYARIRSGIMYALNEFANDGHCFAKKDELVNKASELLGVELEKVETAIQHMLEEKSVIMEEDDAVYLPPFYYSEVGVARRIREIIETKSMYSFYNFDGIIEDLQRECNIQYDEVQIEAIRKAVVSKFMVLTGGPGTGKTTTTLAIIKVFQKLGATVLLAAPTGRAAKRMSEATGMEAKTIHRLLEYSPQDGYKKNDDNPLECDVLIIDETSMIDIILMYNLLKAVSNNTVVILVGDVDQLASVGAGNVLKDIIESGMVTVVRLMRIFRQAMGSAIVTNAHKINHGEYPVLKGGKNSNFFFIEEEDPEKIVELVRELCSKRLPGYYKINPLNDIQVLCPMQKGVVGAQNLNTVLQETLNPCDISIKYGGTIYKLNDRVMQIKNNYDKNVFNGDMGIITDIDQEEKTVRIKFDDAEVEYDVTELDEVTLAYAVTVHKSQGSEYNFVVAPFTMQHYMMLQRNLLYTCVTRAKKVLVLIGSKKALGCCIRNSRSMDRNTKLAQRLKADTEGHHHHHH,soluble
15,MSNINIRVAHEQDAEELHSIMQIAFTPLRELGIDWPSVHADLEMVKDNLRQNTTFVLENEKEIISTITVCYSWSSVKPISGYPFVWWFATRPTYDGQGYGSQLLKYAEETFLRDTLKAAAVTLGTSARLHPWLLNIYEKRGYEIYAKHENDDGDLGVIMRKILIPEQFNDDILGRPPF,not soluble
16,MSLQEGEFEPTWESLQNYKVPEWFRNAKFGIWAHWGPQCVEGSGDWMARSLYLEGSREYKHHVEHYGHPSEVGFKDILPLFKAEKWDPDKLVSFYKKIGAQYFFALGNHHDNYDLWDSQYQEWNSVNIGPKKDILAGWAEAAKKNGLPFGISFHADHAWSWYEPAQRYDRHGEKAGVPYDGCLTKEDGKGKWWEGYDPQKLYAQNHPLSAGSWADGMIHRQWAWGNGVCIPTQEYVTNFYDRTVDAINRYNPDLIYFDVTGVPFYPISDAGLKIAAHFYNHNMVVRKGDFSAVMFGKILTDEQRKALVWDVERGSPNSIYEEPWQTCSCLGGWHYDTRLAENGWYKSASDVVKLLVDVVSKNGNLLLSVPLRADGTFDEKEEAILNEFGNWMSMNKEAIYDTRPWKVFGEGPIANADIKINAQGFNEGAYTKATASEIRFTQTKKYLYATVLAWPEEKQVVIQSLATGSELYPDKITKIELLGYGKVSFTRTAQGVVIDMPDVQLNKIAPVFKIKKEGHHHHHH,soluble
17,MRHREWSRATEGDRTMATTIATLTQKTDGILEGVFATIRVNAPIAIIPNASKSSEEAPDYRVIHRKTGFEIGAGWNRIARQTGEEYLSVKLEAPEIGVIFGNLAPAPGGDPSKKVILWNNPD,not soluble
18,MRAVWVLGIDTSCDDTGVGLVRDGKVVVNLVASQVRLHEAFGGVVPELASREHLKALPLLVERALAEAGLRPKDLDLVAATRGPGLIGALLVGYTFAKGMAFALDRPFYAVHHLEGHIAAAWPEGLPPPFLALVASGGHTHLYEVLDLGRYRLLGATRDDAAGEAFDKVARLLGLGFPGGPEVERLAEEAEEAIPFPVPLRGQEGYDFSFSGLKTKALHLVEKGLPKAALAKGFQEAAIAHLAEVVLKAAKDTGHRVLLVAGGVAANRALQERFKEAGLEVHFPPRGLSQDNGAMIALAAWRRHQRGFPPSPLSLGATAYWPLEEA,soluble
19,MAHHHHHHMHACVAAIAMGEVGVYDDQRSSGQEISLAAAAAAGVQYARSSRTAFSCTSKSARQGGGGAVPIENLLPPLIEQPEKSLRAARGDTGAAITEDERAAIAMETWEHYMATAREATSAEGASMMPSATAAATMMSSASCANAAHSCTSAVAAEAPLVPIRSFPDALCALIERCTATPLVCLTLSDQQCQTTAVRDLLRALLTIMQRIEDSAVAAIDCEIALASHSSSSGHHTPVAATAALDLQAVRLAAVKGISRVLTTYLDGADGSAQPPTKASETFTAGLGHLDILSVFEDVVHQWAHVLTVLERGKELIGASAGVGKGSDVKAEDDLSGVPESPQGHRSGKDGTGAAAQLHWVLRIAYQIIAAEQREASRGSAEAAPRVRLLPPLLVPVALRTLSLITTVIPLVCRPASYVQLCVDVLWGASLLTPSESSRQLMYGSMGVAGLAGASNGSCEGEADVSRGAEASPPAMDLFLALLHQFNEGHSAAHRELRDDLVCLFAFLLRCDIQYVENKLVAQSCRAEWSPTNVFGVNSAVSPPPRLRSKLTPRRSISTSPLWRRSTLWRRCCSRQRAGPNSQRRCTRPQPQPQRRFSPPTSIEANLLR,not soluble
